Assay results published in patent US20220259593A1, “CONTROL OF MAMMALIAN GENE DOSAGE USING CRISPR” (The Regents of the University of California, priority 2019, published 2022).
Numbering of substitutions follows the chain as printed.

B1: cr076 (nucleic acid)
guide: AATTAAGAGCTAAGCTGGAAACAGCATAGCAAGTTTAAATAAGGCTAGTCCGTTATCAACTTGAAAAAGTGGCACCGAGTCGGTGCT
modifications: listed as DNA, chemistry not fully specified
B2: cr374 (nucleic acid)
guide: B1 guide with A1G, A2T, C45A
modifications: listed as DNA, chemistry not fully specified
B3: cr696 (nucleic acid)
guide: B1 guide with A1G, A2T, A31G, A47C, A58C
modifications: listed as DNA, chemistry not fully specified
B4: cr025 (nucleic acid)
guide: B1 guide with A1C, A2T, G7A
modifications: listed as DNA, chemistry not fully specified
B5: cr277 (nucleic acid)
guide: B1 guide with A1G, A2T, G43A, C51T, T62A, A67T, C76A, G82T
modifications: listed as DNA, chemistry not fully specified
B6: cr194 (nucleic acid)
guide: B1 guide with A1G, A2T, C50A
modifications: listed as DNA, chemistry not fully specified
B7: cr262 (nucleic acid)
guide: B1 guide with A1G, A2T, T34C, A59T, T70A
modifications: listed as DNA, chemistry not fully specified
B8: cr198 (nucleic acid)
guide: B1 guide with A1G, A2T, G33T, G79A
modifications: listed as DNA, chemistry not fully specified
B9: cr832 (nucleic acid)
guide: B1 guide with A1G, A2T, A59G, T70C, C73T, A74G, T84C, G85A
modifications: listed as DNA, chemistry not fully specified
B10: cr077 (nucleic acid)
guide: B1 guide with A1G, A8T
modifications: listed as DNA, chemistry not fully specified
B11: cr760 (nucleic acid)
guide: B1 guide with A1G, A2T, A32G, A41C, A65T
modifications: listed as DNA, chemistry not fully specified
B12: cr480 (nucleic acid)
guide: B1 guide with A1G, A2T, C60A, G69T, G72A, G77T, C81A, C86T
modifications: listed as DNA, chemistry not fully specified
B13: cr662 (nucleic acid)
guide: B1 guide with A1G, A2T, T35A
modifications: listed as DNA, chemistry not fully specified
B14: cr218 (nucleic acid)
guide: B1 guide with A1G, A2T, G33T, G63A, A66C
modifications: listed as DNA, chemistry not fully specified
B15: cr073 (nucleic acid)
guide: B1 guide with A1G, A2T, A5T, A8C
modifications: listed as DNA, chemistry not fully specified
B16: cr900 (nucleic acid)
guide: B1 guide with A1G, A2T, T36G
modifications: listed as DNA, chemistry not fully specified
B17: cr180 (nucleic acid)
guide: B1 guide with A1G, A2T, A41C, T80C
modifications: listed as DNA, chemistry not fully specified
B18: cr487 (nucleic acid)
guide: B1 guide with A1G, A2T, A32C
modifications: listed as DNA, chemistry not fully specified
B19: cr853 (nucleic acid)
guide: B1 guide with A1G, A2T, G33T, T46G
modifications: listed as DNA, chemistry not fully specified
B20: cr792 (nucleic acid)
guide: B1 guide with A1G, A2T, T34C, G72C, C86G
modifications: listed as DNA, chemistry not fully specified
B21: cr308 (nucleic acid)
guide: B1 guide with A1G, A2T, G43A, C51T, A59T, T70A, A74T, T84A
modifications: listed as DNA, chemistry not fully specified
B22: cr276 (nucleic acid)
guide: B1 guide with A1G, A2T, C45A, G48T, A59G, T70C, G77C, C81G
modifications: listed as DNA, chemistry not fully specified
B23: cr403 (nucleic acid)
guide: B1 guide with A1G, A2T, T34C, C76A, G82T
modifications: listed as DNA, chemistry not fully specified
B24: cr090 (nucleic acid)
guide: B1 guide with A1G, A2T, A5T, G7T
modifications: listed as DNA, chemistry not fully specified
B25: cr870 (nucleic acid)
guide: B1 guide with A1G, A2T, T27A
modifications: listed as DNA, chemistry not fully specified
B26: cr207 (nucleic acid)
guide: B1 guide with A1G, A2T, C81G
modifications: listed as DNA, chemistry not fully specified
B27: cr720 (nucleic acid)
guide: B1 guide with A1G, A2T, T34C, C45T, G48A
modifications: listed as DNA, chemistry not fully specified
B28: cr046 (nucleic acid)
guide: B1 guide with A1G, A2G, G7C
modifications: listed as DNA, chemistry not fully specified
B29: cr294 (nucleic acid)
guide: B1 guide with A1G, A2T, G44A, C45A, G48T, C50T
modifications: listed as DNA, chemistry not fully specified
B30: cr110 (nucleic acid)
guide: B1 guide with A1G, A2T, C45A, G48T, C75T, C76T, G82A, G83A
modifications: listed as DNA, chemistry not fully specified
B31: cr373 (nucleic acid)
guide: B1 guide with A1G, A2T, T34C, C75G, G83C
modifications: listed as DNA, chemistry not fully specified
B32: cr347 (nucleic acid)
guide: B1 guide with A1G, A2T, T34C, G44C, C50G
modifications: listed as DNA, chemistry not fully specified
B33: cr429 (nucleic acid)
guide: B1 guide with A1G, A2T, G44A, C45A, G48T, C50T, C75A, G83T
modifications: listed as DNA, chemistry not fully specified
B34: cr854 (nucleic acid)
guide: B1 guide with A1G, A2T, C75G, C76G, G82C, G83C
modifications: listed as DNA, chemistry not fully specified
B35: cr965 (nucleic acid)
guide: B1 guide with A1G, A2T, C45G, G48C, A74C, C75T, G83A, T84G
modifications: listed as DNA, chemistry not fully specified
B36: cr158 (nucleic acid)
guide: B1 guide with A1G, A2T, G43A, C45T, G48A, C51T, T62C, A67G
modifications: listed as DNA, chemistry not fully specified
B37: cr654 (nucleic acid)
guide: B1 guide with A1G, A2T, T34A, A65T
modifications: listed as DNA, chemistry not fully specified
B38: cr220 (nucleic acid)
guide: B1 guide with A1G, A2T, A41C, G52A, T54A
modifications: listed as DNA, chemistry not fully specified
B39: cr011 (nucleic acid)
guide: B1 guide with A1G, A2T, T4C
modifications: listed as DNA, chemistry not fully specified
B40: cr379 (nucleic acid)
guide: B1 guide with A1G, A2T, A26C
modifications: listed as DNA, chemistry not fully specified
B41: cr732 (nucleic acid)
guide: B1 guide with A1G, A2T, A42G, T53G, G71C
modifications: listed as DNA, chemistry not fully specified

Test system: K562 CRISPRi cells
Test: Constant region variant library pooled growth screen, K562
Type: cell-based, human
Settings: sgRNA constant region variants
In short: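 Relative activity expresses each targeting sequence:constant region pair's phenotype over that of the unmodified constant region. Pooled growth screen ran in K562 CRISPRi cells in duplicate spinner-flask replicates, with puromycin selection and 4–8 days' growth at >2000× coverage; library paired variants with 36 targeting sequences.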

[1] = activity relative to the unmodified constant region cr995
[2] = activity relative to the original, un-modified constant region cr995

Row | Molecule | Mean relative activity [1] | Mean relative activity [2]
1 | B1 | 0.2741 | 
2 | B2 | 0.2686 | 
3 | B3 | 0.2553 | 
4 | B4 | 0.2396 | 
5 | B5 | 0.2732 | 
6 | B6 | 0.2113 | 
7 | B7 | 0.2329 | 
8 | B8 | 0.236 | 
9 | B9 |  | 1.039
10 | B10 | 0.2538 | 
11 | B11 | 0.1909 | 
12 | B12 | 0.2543 | 
13 | B13 | 0.2491 | 
14 | B14 | 0.207 | 
15 | B15 | 0.265 | 
16 | B16 | 0.1846 | 
17 | B17 | 0.208 | 
18 | B18 |  | 1.039
19 | B19 | 0.2121 | 
20 | B20 | 0.242 | 
21 | B21 | 0.2249 | 

Row | Molecule | Mean relative activity [1] | Mean relative activity [2]
22 | B22 | 0.2143 | 
23 | B23 | 0.2381 | 
24 | B24 | 0.1865 | 
25 | B25 |  | 1.04
26 | B26 | 0.2154 | 
27 | B27 | 0.2481 | 
28 | B28 | 0.2592 | 
29 | B29 | 0.1883 | 
30 | B30 | 0.2547 | 
31 | B31 | 0.1993 | 
32 | B32 | 0.1915 | 
33 | B33 | 0.196 | 
34 | B34 | 0.2099 | 
35 | B35 | 0.2572 | 
36 | B36 | 0.2403 | 
37 | B37 | 0.2692 | 
38 | B38 | 0.2229 | 
39 | B39 | 0.2088 | 
40 | B40 |  | 1.041
41 | B41 | 0.1926 | 
